{
  "source": "paper PMC6719045",
  "about": "“Analysis of IFITM-IFITM Interactions by a Flow Cytometry-Based FRET Assay” (International Journal of Molecular Sciences, 2019)",
  "binders": {"B1": {"name": "IFITM1 fused to SCFP or SYFP (interferon-induced transmembrane protein 1) (natural protein, UniProt P13164 1-125, looked up)", "chain": "MHKEEHEVAVLGPPPSTILPRSTVINIHSETSVPDHVVWSLFNTLFLNWCCLGFIAFAYSVKSRDRKMVGDVTGAQAYASTAKCLNIWALILGILMTIGFILLLVFGSVTVYHIMLQIIQEKRGY", "notes": "interferon-induced transmembrane protein 1 (IFITM1); One molecule stands for both FRET copies: one carries SCFP3A (donor), the other SYFP2 (acceptor); also called SCFP3A-IFITM1; SYFP2-IFITM1; source: 293T, transiently transfected, in cells; not shown: SCFP3A or SYFP2, N-terminal, kept"}},
  "biological_target": "T1, IFITM3-wt fused to SCFP or SYFP (interferon-induced transmembrane protein 3) (UniProt Q01628 1-133)",
  "T1 construct": "interferon-induced transmembrane protein 3 (IFITM3), wild type; One molecule stands for both FRET copies (SCFP3A fusion and SYFP2 fusion); also called SxFP-IFITM3; IFTIM3; source: 293T, transiently transfected, in cells; not shown: SCFP3A or SYFP2, N-terminal, kept",
  "T1 sequence (Q01628 whole entry, the tested form may be a part)": "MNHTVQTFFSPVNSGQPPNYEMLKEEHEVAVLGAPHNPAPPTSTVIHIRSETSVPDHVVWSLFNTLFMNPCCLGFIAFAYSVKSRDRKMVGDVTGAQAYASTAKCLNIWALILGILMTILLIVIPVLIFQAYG",
  "assay": "FRET or BRET; FACS-FRET in 293T cells at 48 h post transfection with titrated amounts of plasmids, total DNA kept constant with empty pCAGGS (Figure 2D)",
  "conditions": "partners not purified",
  "data": [
    {"binder": "B1", "values": [
      {"measurement": "percent of FRET-positive cells", "value": "~20", "unit": "%"}
    ]}
  ]
}
